Like-named read-outs stand apart in the source and are kept apart here. Each block holds one substance with its values, some of them ahead of it.
Experiments:
[1] = biological target: FtsY (Escherichia coli) (UniProt P10121); conditions: cited from earlier work
[2] = biological target: cpSRP54 (chloroplast SRP54), wildtype (Arabidopsis thaliana) (UniProt P37107); assay: GTPase inhibition assay
[3] = biological target: cpSRP54 (chloroplast SRP54), wildtype (Arabidopsis thaliana) (UniProt P37107); assay: GTPase inhibition assay; remark: listed apart in the source
[4] = biological target: cpSRP54 (chloroplast SRP54), wildtype (Arabidopsis thaliana) (UniProt P37107)
[5] = biological target: cpFtsY(321C)-DACM (UniProt O80842); assay: FRET or BRET
[6] = biological target: cpFtsY(A168W) labeled for FRET; assay: FRET or BRET
[7] = biological target: cpFtsY (chloroplast SRP receptor), wildtype (UniProt O80842)
[8] = biological target: cpFtsY (chloroplast SRP receptor), wildtype (UniProt O80842); assay: GTPase inhibition assay
[9] = biological target: cpFtsY (chloroplast SRP receptor), wildtype (UniProt O80842); assay: GTPase inhibition assay; remark: listed apart in the source

Chain of cpSRP54 (chloroplast SRP54), wildtype (Arabidopsis thaliana) (P37107 76-564): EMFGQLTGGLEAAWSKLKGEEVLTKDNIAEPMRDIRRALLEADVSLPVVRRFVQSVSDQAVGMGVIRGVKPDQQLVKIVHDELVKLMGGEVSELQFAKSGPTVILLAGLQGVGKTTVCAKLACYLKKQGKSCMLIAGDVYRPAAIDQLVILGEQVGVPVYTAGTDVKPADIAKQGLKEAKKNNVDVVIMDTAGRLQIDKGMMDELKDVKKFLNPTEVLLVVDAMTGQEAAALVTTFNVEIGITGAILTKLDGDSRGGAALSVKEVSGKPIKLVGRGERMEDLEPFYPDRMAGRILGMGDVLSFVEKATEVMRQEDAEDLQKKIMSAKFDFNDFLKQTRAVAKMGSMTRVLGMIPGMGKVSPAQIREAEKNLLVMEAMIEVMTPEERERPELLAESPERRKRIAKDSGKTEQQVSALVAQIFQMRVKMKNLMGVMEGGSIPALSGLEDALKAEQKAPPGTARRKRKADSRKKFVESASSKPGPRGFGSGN
Chain of FtsY (Escherichia coli) (P10121 2-497): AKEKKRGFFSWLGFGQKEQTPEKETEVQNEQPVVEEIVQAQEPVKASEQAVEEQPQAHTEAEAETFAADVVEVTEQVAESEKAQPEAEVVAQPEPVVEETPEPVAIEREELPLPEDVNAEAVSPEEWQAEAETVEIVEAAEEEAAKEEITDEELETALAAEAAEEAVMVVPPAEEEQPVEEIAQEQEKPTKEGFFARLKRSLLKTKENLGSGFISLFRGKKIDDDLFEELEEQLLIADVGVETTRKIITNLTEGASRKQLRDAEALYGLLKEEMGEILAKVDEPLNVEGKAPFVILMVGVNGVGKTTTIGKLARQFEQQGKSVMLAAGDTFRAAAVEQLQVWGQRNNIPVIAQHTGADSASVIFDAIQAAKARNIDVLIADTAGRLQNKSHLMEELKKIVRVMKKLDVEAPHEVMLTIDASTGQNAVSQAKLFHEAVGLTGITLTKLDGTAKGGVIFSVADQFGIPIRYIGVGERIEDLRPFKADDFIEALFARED
Chain of Ffh (P0AGD7 whole entry): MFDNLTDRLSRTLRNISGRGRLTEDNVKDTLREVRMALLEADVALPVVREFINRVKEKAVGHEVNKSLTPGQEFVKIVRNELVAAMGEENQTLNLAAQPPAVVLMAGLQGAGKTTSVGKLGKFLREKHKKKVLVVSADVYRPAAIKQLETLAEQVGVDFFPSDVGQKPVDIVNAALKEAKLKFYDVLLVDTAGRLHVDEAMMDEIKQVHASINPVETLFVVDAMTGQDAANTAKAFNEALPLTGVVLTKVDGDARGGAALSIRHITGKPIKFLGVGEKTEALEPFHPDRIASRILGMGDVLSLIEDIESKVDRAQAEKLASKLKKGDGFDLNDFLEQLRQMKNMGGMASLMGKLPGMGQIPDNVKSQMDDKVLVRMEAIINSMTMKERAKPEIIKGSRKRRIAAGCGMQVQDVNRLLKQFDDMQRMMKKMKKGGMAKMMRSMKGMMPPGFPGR

Substance: Ffh (from UniProt P0AGD7)
Kd [1]: 6000 nM

Ki [2]: 230 nM
Ki [3]: < 200 nM
Substance: cpFtsY(A168W) (natural protein)

kcat/Km of the reciprocally stimulated GTPase reaction [4]: 633000 M⁻¹ s⁻¹
Substance: cpFtsY(F165A) (natural protein)

kcat/Km of the reciprocally stimulated GTPase reaction [4]: 14800 M⁻¹ s⁻¹
Ki [2]: 3200 nM
Substance: cpFtsY(R166A) (natural protein)

Kd [5]: 7000 nM
kon [5]: 500000 M⁻¹ s⁻¹
Kd [6]: 350 nM
Substance: cpSRP54(234C)-BODIPY-FL (from UniProt P37107 76-564) (natural protein)

Km of the reciprocally stimulated GTPase reaction [7]: 0.24 µM
kcat/Km of the reciprocally stimulated GTPase reaction [7]: 46700 M⁻¹ s⁻¹
Ki [8]: 110 nM
Ki [9]: < 200 nM
Substance: cpSRP54(A142W) (natural protein)

kcat/Km of the reciprocally stimulated GTPase reaction [7]: 3170 M⁻¹ s⁻¹
Ki [8]: 2000 nM
Substance: cpSRP54(D137A) (natural protein)

kcat/Km of the reciprocally stimulated GTPase reaction [7]: 9000 M⁻¹ s⁻¹
Ki [8]: 510 nM
Substance: cpSRP54(R140A) (natural protein)

From PMC6309729
